Assay results published in paper PMC8359929.

Substrate: N[C@@H](C(=O)O)[C@@H](O)[C@H](O)[C@H](O)COP(=O)(O)O
Test: purified protein
Assay type: biochemical, Salmonella enterica
Conditions: 0.1 M triethanolamine-HCl pH 8.0, 37 °C, 0.2 mM NADH

B1: D-glucosaminate-6-phosphate ammonia-lyase (DGL), native (Salmonella enterica subsp. enterica serovar Typhimurium str. 14028S) (protein)
chain: MTPNIYQQLGLKKVINACGKMTILGVSSVAPEVMQATARAASAFVEIDALVEKTGELVSRYTGAEDSYITSCASAGIAIAVAAAITHGDRARVALMPDSSGMANEVVMLRGHNVDYGAPVTSAIRLGGGRIVEVGSSNLATRWQLESAINEKTAALLYVKSHHCVQKGMLSIDDFVQVAQANHLPLIVDAAAEEDLRGWVASGADMVIYSGAKAFNAPTSGFITGRKTWIAACKAQHQGIARAMKIGKENMVGLVYALENYHQGQTTVTAAQLQPVAEAISAIHGLYADIEQDEAGRAIWRIRVRVNASELGLNAQDVEAQLRGGEIAIYARKYQLHQGVFSLDPRTVAEGEMALIVARLREIAEHAAD
Q: How did the Km turn out when B1 was run?
A: The Km was 139 ± 26 µM.

Q: And the kcat?
A: Its kcat is 27.4 ± 1.4 s⁻¹.

Q: What about the kcat/Km of the same protein?
A: Its kcat/Km is 197000 ± 31000 M⁻¹ s⁻¹.
